According to article PMC4689322:

Biological target: T1, MBNL1 ZnF3/4 (Homo sapiens, UniProt Q9NR56-2 178-246)
T1 sequence: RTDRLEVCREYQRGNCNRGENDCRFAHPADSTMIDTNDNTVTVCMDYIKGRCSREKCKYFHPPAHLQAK
Assay: intrinsic tyrosine fluorescence quenching

In the case of UCGCUUUUCCCCUCCGCU (ssRNA) [hcTNT 18-nt (S10)], the Kd is reported as 40 ± 10 nM.
